According to US20230192860A1 (published 2023):

How the values were obtained:
[1] = molecular target: T1, monovalent hVISTA-ECD (amino acids 32-193 of SEQ ID NO: 1 with a 7xHis tail) (UniProt Q9H7M9 33-193); experiment: SPR; pH 7.4
[2] = molecular target: T1, monovalent hVISTA-ECD (amino acids …); experiment: SPR; pH 6.0
[3] = molecular target: T1, monovalent hVISTA-ECD (amino acids …); experiment: SPR; pH 6.7
[4] = molecular target: T1, monovalent hVISTA-ECD (amino acids …); experiment: SPR; pH 6.0; remark: listed apart in the source
[5] = molecular target: T1, monovalent hVISTA-ECD (amino acids …); experiment: SPR; pH 6.7; remark: listed apart in the source

T1 sequence (Q9H7M9 other isoform, or with tags, fused parts or gaps): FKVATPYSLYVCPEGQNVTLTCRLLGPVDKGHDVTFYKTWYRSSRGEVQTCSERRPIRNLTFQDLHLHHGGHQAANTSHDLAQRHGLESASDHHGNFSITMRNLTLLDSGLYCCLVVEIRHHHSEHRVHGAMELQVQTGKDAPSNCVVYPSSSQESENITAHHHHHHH

B1: P1-068761_H100G_E100fF (antibody, V domains shown)
VH: EVQLVESGGGLVQPGKSLRLSCAASGFTLEDEAMHWVRQAPGKGLEWVSGINWNSEEIGYADSVKGRFTISRDNAKNSLYLQMNSLRTEDTALYYCAKVPGYSGGWIDAFDVWGQGTMVTVSS
VL: not shown
Kd [1]: 41 nM
Kd [2]: 0.23 nM
Kd [3]: 2.3 nM

B2: P1-070900 (P1-068761_E56N_H100G) (antibody, V domains shown)
VH: EVQLVESGGGLVQPGKSLRLSCAASGFTLEDEAMHWVRQAPGKGLEWVSGINWNSENIGYADSVKGRFTISRDNAKNSLYLQMNSLRTEDTALYYCAKVPGYSGGWIDAEDVWGQGTMVTVSS
VL: not shown
Kd [2]: 10 nM

B3: P1-068761_E30D_E56N (antibody, V domains shown)
VH: EVQLVESGGGLVQPGKSLRLSCAASGFTLDDEAMHWVRQAPGKGLEWVSGINWNSENIGYADSVKGRFTISRDNAKNSLYLQMNSLRTEDTALYYCAKVPGYSHGWIDAEDVWGQGTMVTVSS
VL: not shown
Kd [2]: 50 nM
Kd [3]: ~32 nM

B4: P1-070868 (P1-068761_E55A) (antibody, V domains shown)
VH: EVQLVESGGGLVQPGKSLRLSCAASGFTLEDEAMHWVRQAPGKGLEWVSGINWNSAEIGYADSVKGRFTISRDNAKNSLYLQMNSLRTEDTALYYCAKVPGYSHGWIDAEDVWGQGTMVTVSS
VL: not shown
Kd [2]: 3.4 nM
Kd [3]: 120 nM

B5: P1-070922 (P1-068767_E30D_E55A) (antibody, V domains shown)
VH: EVQLVESGGGLVQPGKSLRLSCAASGFTLDDYAMHWVRQAPGKGLEWVSGIDWNSANIGYADSVKGRFTISRDNAKNSLYLQMNSLRTEDTALYYCAKVPGYSGGWIDAEDDWGQGTMVTVSS
VL: not shown
Kd [4]: 8.3 nM

B6: P1-070864 (P1-068761_E30D) (antibody, V domains shown)
VH: EVQLVESGGGLVQPGKSLRLSCAASGFTLDDEAMHWVRQAPGKGLEWVSGINWNSEEIGYADSVKGRFTISRDNAKNSLYLQMNSLRTEDTALYYCAKVPGYSHGWIDAEDVWGQGTMVTVSS
VL: not shown
Kd [2]: 8.3 nM
Kd [3]: 370 nM

B7: P1-070870 (P1-068761_E56N) (antibody, V domains shown)
VH: EVQLVESGGGLVQPGKSLRLSCAASGFTLEDEAMHWVRQAPGKGLEWVSGINWNSENIGYADSVKGRFTISRDNAKNSLYLQMNSLRTEDTALYYCAKVPGYSHGWIDAEDVWGQGTMVTVSS
VL: not shown
Kd [2]: 19 nM
Kd [3]: ~8200 nM

B8: P1-068767_E100fF (antibody, V domains shown)
VH: EVQLVESGGGLVQPGKSLRLSCAASGFTLEDYAMHWVRQAPGKGLEWVSGIDWNSENIGYADSVKGRFTISRDNAKNSLYLQMNSLRTEDTALYYCAKVPGYSGGWIDAFDDWGQGTMVTVSS
VL: not shown
Kd [5]: 5200 nM
Kd [4]: ~42 nM

B9: P1-068761_E100fF (antibody, V domains shown)
VH: EVQLVESGGGLVQPGKSLRLSCAASGFTLEDEAMHWVRQAPGKGLEWVSGINWNSEEIGYADSVKGRFTISRDNAKNSLYLQMNSLRTEDTALYYCAKVPGYSHGWIDAFDVWGQGTMVTVSS
VL: not shown
Kd [1]: 20 nM
Kd [2]: 0.19 nM
Kd [3]: 1.3 nM

B10: P1-070904 (P1-068767_E30D) (antibody, V domains shown)
VH: EVQLVESGGGLVQPGKSLRLSCAASGFTLDDYAMHWVRQAPGKGLEWVSGIDWNSENIGYADSVKGRFTISRDNAKNSLYLQMNSLRTEDTALYYCAKVPGYSGGWIDAEDDWGQGTMVTVSS
VL: not shown
Kd [4]: 9.6 nM

B11: P1-070872 (P1-068761_H100G) (antibody, V domains shown)
VH: EVQLVESGGGLVQPGKSLRLSCAASGFTLEDEAMHWVRQAPGKGLEWVSGINWNSEEIGYADSVKGRFTISRDNAKNSLYLQMNSLRTEDTALYYCAKVPGYSGGWIDAEDVWGQGTMVTVSS
VL: not shown
Kd [2]: 4.4 nM
Kd [3]: 230 nM

B12: P1-068761_E30D_H100G (antibody, V domains shown)
VH: EVQLVESGGGLVQPGKSLRLSCAASGFTLDDEAMHWVRQAPGKGLEWVSGINWNSEEIGYADSVKGRFTISRDNAKNSLYLQMNSLRTEDTALYYCAKVPGYSGGWIDAEDVWGQGTMVTVSS
VL: not shown
Kd [2]: 15 nM
Kd [3]: ~81 nM

B13: P1-068761_E56N_E100fF (antibody, V domains shown)
VH: EVQLVESGGGLVQPGKSLRLSCAASGFTLEDEAMHWVRQAPGKGLEWVSGINWNSENIGYADSVKGRFTISRDNAKNSLYLQMNSLRTEDTALYYCAKVPGYSHGWIDAFDVWGQGTMVTVSS
VL: not shown
Kd [1]: 65 nM
Kd [2]: 1.4 nM
Kd [3]: 6.5 nM

B14: P1-068761_E32Y (antibody, V domains shown)
VH: EVQLVESGGGLVQPGKSLRLSCAASGFTLEDYAMHWVRQAPGKGLEWVSGINWNSEEIGYADSVKGRFTISRDNAKNSLYLQMNSLRTEDTALYYCAKVPGYSHGWIDAEDVWGQGTMVTVSS
VL: not shown
Kd [1]: 18 nM
Kd [2]: 0.21 nM
Kd [3]: 1.6 nM

B15: P1-068761.IgG1.3 (antibody, V domains shown)
VH: EVQLVESGGGLVQPGKSLRLSCAASGFTLEDEAMHWVRQAPGKGLEWVSGINWNSEEIGYADSVKGRFTISRDNAKNSLYLQMNSLRTEDTALYYCAKVPGYSHGWIDAEDVWGQGTMVTVSS
VL: not shown
Kd [2]: 2.6 nM
Kd [3]: 71 nM

B16: P1-070878 (P1-068761_E55A_E56N) (antibody, V domains shown)
VH: EVQLVESGGGLVQPGKSLRLSCAASGFTLEDEAMHWVRQAPGKGLEWVSGINWNSANIGYADSVKGRFTISRDNAKNSLYLQMNSLRTEDTALYYCAKVPGYSHGWIDAEDVWGQGTMVTVSS
VL: not shown
Kd [2]: 21 nM
Kd [3]: 210 nM

B17: P1-070908 (P1-068767_E55A) (antibody, V domains shown)
VH: EVQLVESGGGLVQPGKSLRLSCAASGFTLEDYAMHWVRQAPGKGLEWVSGIDWNSANIGYADSVKGRFTISRDNAKNSLYLQMNSLRTEDTALYYCAKVPGYSGGWIDAEDDWGQGTMVTVSS
VL: not shown
Kd [5]: 380 nM
Kd [4]: 5.7 nM

B18: P1-070916 (P1-068767_D52N_E55A) (antibody, V domains shown)
VH: EVQLVESGGGLVQPGKSLRLSCAASGFTLEDYAMHWVRQAPGKGLEWVSGINWNSANIGYADSVKGRFTISRDNAKNSLYLQMNSLRTEDTALYYCAKVPGYSGGWIDAEDDWGQGTMVTVSS
VL: not shown
Kd [5]: 120 nM
Kd [4]: 4 nM

B19: P1-068767_D52N_E100fF (antibody, V domains shown)
VH: EVQLVESGGGLVQPGKSLRLSCAASGFTLEDYAMHWVRQAPGKGLEWVSGINWNSENIGYADSVKGRFTISRDNAKNSLYLQMNSLRTEDTALYYCAKVPGYSGGWIDAFDDWGQGTMVTVSS
VL: not shown
Kd [5]: ~39 nM
Kd [4]: 20 nM

B20: P1-068761_E32Y_E100fF (antibody, V domains shown)
VH: EVQLVESGGGLVQPGKSLRLSCAASGFTLEDYAMHWVRQAPGKGLEWVSGINWNSEEIGYADSVKGRFTISRDNAKNSLYLQMNSLRTEDTALYYCAKVPGYSHGWIDAFDVWGQGTMVTVSS
VL: not shown
Kd [1]: 3.7 nM
Kd [2]: 0.25 nM
Kd [3]: 1.1 nM

B21: P1-068767_E55A_E100fF (antibody, V domains shown)
VH: EVQLVESGGGLVQPGKSLRLSCAASGFTLEDYAMHWVRQAPGKGLEWVSGIDWNSANIGYADSVKGRFTISRDNAKNSLYLQMNSLRTEDTALYYCAKVPGYSGGWIDAFDDWGQGTMVTVSS
VL: not shown
Kd [4]: 62 nM

B22: P1-068761_E30D_E100fF (antibody, V domains shown)
VH: EVQLVESGGGLVQPGKSLRLSCAASGFTLDDEAMHWVRQAPGKGLEWVSGINWNSEEIGYADSVKGRFTISRDNAKNSLYLQMNSLRTEDTALYYCAKVPGYSHGWIDAFDVWGQGTMVTVSS
VL: not shown
Kd [1]: 48 nM
Kd [2]: 0.43 nM
Kd [3]: 3.7 nM

B23: P1-070890 (P1-068761_E30D_E55A) (antibody, V domains shown)
VH: EVQLVESGGGLVQPGKSLRLSCAASGFTLDDEAMHWVRQAPGKGLEWVSGINWNSAEIGYADSVKGRFTISRDNAKNSLYLQMNSLRTEDTALYYCAKVPGYSHGWIDAEDVWGQGTMVTVSS
VL: not shown
Kd [2]: 12 nM
Kd [3]: ~110 nM

B24: P1-070914 (P1-068767_E30D_D52N) (antibody, V domains shown)
VH: EVQLVESGGGLVQPGKSLRLSCAASGFTLDDYAMHWVRQAPGKGLEWVSGINWNSENIGYADSVKGRFTISRDNAKNSLYLQMNSLRTEDTALYYCAKVPGYSGGWIDAEDDWGQGTMVTVSS
VL: not shown
Kd [5]: 120 nM
Kd [4]: 5.8 nM

B25: P1-068761_E32Y_E55A (antibody, V domains shown)
VH: EVQLVESGGGLVQPGKSLRLSCAASGFTLEDYAMHWVRQAPGKGLEWVSGINWNSAEIGYADSVKGRFTISRDNAKNSLYLQMNSLRTEDTALYYCAKVPGYSHGWIDAEDVWGQGTMVTVSS
VL: not shown
Kd [1]: 23 nM
Kd [2]: 0.31 nM
Kd [3]: 2 nM

B26: P1-070906 (P1-068767_D52N) (antibody, V domains shown)
VH: EVQLVESGGGLVQPGKSLRLSCAASGFTLEDYAMHWVRQAPGKGLEWVSGINWNSENIGYADSVKGRFTISRDNAKNSLYLQMNSLRTEDTALYYCAKVPGYSGGWIDAEDDWGQGTMVTVSS
VL: not shown
Kd [5]: 210 nM
Kd [4]: 3.2 nM

B27: P1-068761_E32Y_H100G (antibody, V domains shown)
VH: EVQLVESGGGLVQPGKSLRLSCAASGFTLEDYAMHWVRQAPGKGLEWVSGINWNSEEIGYADSVKGRFTISRDNAKNSLYLQMNSLRTEDTALYYCAKVPGYSGGWIDAEDVWGQGTMVTVSS
VL: not shown
Kd [1]: 72 nM
Kd [2]: 0.48 nM
Kd [3]: 5 nM

B28: P1-068767_E30D_E100fF (antibody, V domains shown)
VH: EVQLVESGGGLVQPGKSLRLSCAASGFTLDDYAMHWVRQAPGKGLEWVSGIDWNSENIGYADSVKGRFTISRDNAKNSLYLQMNSLRTEDTALYYCAKVPGYSGGWIDAFDDWGQGTMVTVSS
VL: not shown
Kd [5]: 10000 nM
Kd [4]: ~82 nM
